Results reported in publication PMC4669440.

What was measured:
Conditions in all cases: glycan lost; control: WT mice
[1] = three-point bending of femur and tibia
[2] = TRAP staining, 6-month-old mice
[3] = X-ray radiography of long bones
[4] = H&E histology of long bone
[5] = immunohistochemistry, anti-DMP1-N 9B6.3, cortical bone

B1: Dentin matrix protein 1 (DMP1): S89G (protein)
parent chain: MKTVILLVFLWGLSCALPVARYHNTESESSEERTGDLAGSPPPPTNSESSEESQASPEGQANSDHTDSSESGEELGYDRGQYRPAGGLSKSTGTGADKEDDEDDSGDDTFGDEDNDLGPEEGQWGGPSKLDSDEDSTDTTQSSEDSTSQENSAQDTPSDSKDHDSEDEADSRPEAGDSTQDSESEEQRVGGGSEGESSHGDGSEFDDEGMQSDDPESTRSDRGHARMSSAGIRSEESKGDHEPTSTQDSDDSQSVEFSSRKSFRRSHVSEEDYRGELTDSNSRETQSDSTEDTASKEESRSESQEDTAESQSQEDSPEGQDPSSESSEEAGEPSQESSSESQEGVTSESRGDNPDNTSQAGDQEDSESSEEDSLNTFSSSESQSTEEQADSESNESLSLSEESQESAQDGDSSSQEGLQSQSASTESRSQESQSEQDSRSEEDSDSQDSSRSKEESNSTGSASSSEEDIRPKNMEADSRKLIVDAYHNKPIGDQDDNDCQDGY
decreases: other: bone mechanical strength [1] | other: osteoclast number in bone [2] | other: radiographic bone density [3] | other: articular cartilage thickness [4] | expression_or_secretion [5]
